The values below come from PMC3554631, “Structural Basis of a Histone H3 Lysine 4 Demethylase Required for Stem Elongation in Rice” (PLoS Genetics, 2013).

Substitutions are numbered along the chain they refer to. In names and notes the source's numbering stands.

What all share (type): cell-based
Common to all, as to details: mutant expressed transiently in tobacco cells, immunostaining of nuclei, at least 30 nuclei per transfection

For test [1], the system named is H3K4me1. The experiment in a line: H3K4 demethylation assay in tobacco cells of JMJ703 substitution mutants, H3K4me1. As to the method: (§1) The cDNA fragment of the J3NCZ region was amplified using primers FAJ3NCZ-F and FAJ3NCZ-R and then cloned into pFA121 vector modified from pBI121 (GenBank: AF485783.1), in which GUS was replaced by 2×FLAG∶2×HA tag. The pFA121-J3NCZ plasmid was transferred into Agrobacterium tumefaciens strain EHA105 cells for tobacco infection with the help of Agrobacterium cells harboring P19 plasmids. For in vivo histone demethylation assay, tobacco infection and nuclei isolation were performed as previously described. The immunostaining protocol was modified from http://sites.bio.indiana.edu/~pikaardlab. Briefly, the nucleus solution was placed on a poly-lysine coated slide, air dried, and then refixed with 4% formaldehyde in KPBS (1.28 M NaCl, 20 mM KCl, 80 mM Na2HPO4, 20 mM KH2PO4, pH7.2) containing 1% Triton X-100 for 20 min. After 3 washes with KPBS-1% Triton, slides were blocked with blocking solution (1% BSA in KPBS-1% Triton) and incubated at 37°C for 30 min. The blocking solution was washed off with KPBS-1% Triton and the slides were incubated with both anti-HA and histone méthylation specific antibodies diluted in blocking solution to 1∶300 at 4°C overnight. After washing with KPBS, slides were blocked and incubated with fluorescent-labeled antibodies at 37°C for 2 h. After washing with KPBS thrice, nuclei were stained with 5 µg/mL 4,6-diamidino-2-phenylindole (DAPI), coated with a drop of VECTASHIELD Mounting Medium (H-1000, Vector Laboratories), and then covered with a coverslip followed by confocal microscope (Leica) detection. In vitro histone demethylation assays were performed as previously described. FA-J3NCZ was purified after overexpression with Anti-FLAG M2 magnetic beads according the manufacturer's instruction (Sigma).
(§2) Supplementary file pgen.1003239.s006.tif: Figure S6 Demethylation assays for JMJ703 substitution mutants that have been produced based on the structural data. The mutant names are labeled at the top left corner of each panel. Image panels from left to right are staining by DAPI, anti-HA and anti-methylated histones, respectively. Bar = 10 µm. At least 30 nuclei that expressed JMJ703 per transfection were observed and imaged. (TIF) Click here for additional data file.

For test [2], the system named is H3K4me3. In words: H3K4 demethylation assay in tobacco cells of JMJ703 substitution mutants, H3K4me3. As to the method: as §1, §2
Test [3] concerns H3K4me2. The experiment in a line: H3K4 demethylation assay in tobacco cells of JMJ703 substitution mutants, H3K4me2. As to the method: as §1, §2

B1: H394A: JMJ703 substitution mutant, Fe-binding residue (protein, UniProt Q53WJ1 1-1238, looked up, variant H394A)
Lysine-specific demethylase …: MMGVTTTLNEDTEPSIPPGFGPFATLPLWGIHNDAKPAVTHSTPVQALQSIRKDSEECQPSAAVSRSDTPCSTSGTQTCRKSLRNRPPIDYSRFEHISDEDSDVEIVEKDVSSTRRRQQLPKGVLRGCAECSDCQKVIAKWNPAGARRPVLDEAPVFYPTEEEFEDTLKYIESIRPMAEPYGICRIVPPSSWKPPCLLKDKSIWEGSKFSTRVQKVDKLQNRKSSKKGRRGGMMKRRKLAESEENSATAHTQTGMQQSPERFGFEPGPEFTLQTFQKYADDFSKQYFRKDTSMDSVPSVEDIEGEYWRIVEVPTEEIEVIYGADLETGTFGSGFPKLSPETKSDAEDKYAQSGWNLNNLPRLQGSVLSFEGGDISGVLVPWVYVGMCFSSFCWAVEDHHLYSLNYMHWGAPKLWYGVPGKDAVNLESAMRKHLPELFEEQPDLLHNLVTQFSPSLLKSEGVHVYRCVQHEGEFVLTFPRAYHAGFNCGFNCAEAVNVAPIDWLPIGHNAVELYREQARKITISHDKLLLGAAREAIRAQWDILFLKRNTADNMRWKSICGADSTIFKALKARIETELVQRKTLGVPAQSRKMDAEFDSIDRECALCYYDLHLSASGCPCCPEKYACLVHAKQLCSCDWDKRFFLFRYDVNELNILADALGGKLSAIHRWGVSDLGLSLSSCVKREKVQDSKTVRRLTDGPRRSYMSQASAVSLVSSSTSNEQKDEGNKIMKIASPQTNNVCPSVEQRKSENISPLKEPCVRNELSCTTNSDSNGLQYNGGLGGHKGSAPGLPVSSSPSFSSNVATRPISTSSVSMKIVQGLVASKSCIQASSRTGDSRSLLGEHHNRSPAMIHDGTNMKSSLESSNNSCRLIASDYNATPCHSSKDQVLVTPGTNASVVTLKDSSQVHSASSQQFVRTGPWTQSASHEASSPSTSALKPSLDPPAMKNLYGGFTQGSAHPGPPSFSNQQPNDGRLQRTSESLPGVEARARGHPTVTAQPALEIHSRNGGAQKGPRIANVVHRFKCSVEPLEIGVVLSGRLWSSSQAIFPKGFRSRVKYFSIVDPIQMAYYISEILDAGMQGPLFMVKLENCPGEVFINLSPTKCWNMVRERLNMEIRRQLNMGKSNLPTLQPPGSVDGLEMFGLLSPPIVQAIWARDRDHICTEYWRSRPHVLIEDPNNRHMLSQGPPLLALRGLIQRANRDELQVLRSLMTNSNNLDDSSRQQAAHIIEEEIAKQLC
Take B1: the H3K4me1 demethylation activity entry in test [1] is on record as “no”. In addition, the H3K4me3 demethylation activity entry in test [2] was “no”. In test [3], the H3K4me2 demethylation activity result was “no”.

B2: A494S: JMJ703 substitution mutant, methylation state-specificity residue (protein, UniProt Q53WJ1 1-1238, looked up, variant A494S)
Lysine-specific demethylase …: B1 Lysine-specific demethylase … with A394H, A494S
B2: the H3K4me1 demethylation activity result in test [1] was “no”. Further, the H3K4me3 demethylation activity result in test [2] was “yes”. In addition, the H3K4me2 demethylation activity entry in test [3] is recorded as “no”.

B3: H482Y: JMJ703 substitution mutant, Fe-binding residue (protein, UniProt Q53WJ1 1-1238, looked up, variant H482Y)
Lysine-specific demethylase …: B1 Lysine-specific demethylase … with A394H, H482Y
In the case of B3, in test [1], the H3K4me1 demethylation activity entry is reported as “no”. The H3K4me3 demethylation activity entry in test [2] is listed as “no”. For the same molecule, the H3K4me2 demethylation activity result in test [3] was “no”.

B4: W381A: JMJ703 substitution mutant, residue conserved in H3K4 demethylases (protein, UniProt Q53WJ1 1-1238, looked up, variant W381A)
Lysine-specific demethylase …: B1 Lysine-specific demethylase … with W381A, A394H
As for B4, the H3K4me1 demethylation activity result in test [1] is listed as “no”. For the same molecule, the H3K4me3 demethylation activity entry in test [2] is “no”. Also, the H3K4me2 demethylation activity entry in test [3] is “no”.

B5: G376A: JMJ703 substitution mutant, methyl group-binding residue (protein, UniProt Q53WJ1 1-1238, looked up, variant G376A)
Lysine-specific demethylase …: B1 Lysine-specific demethylase … with G376A, A394H
Turning to B5, the H3K4me1 demethylation activity entry in test [1] is reported as “no”. In addition, the H3K4me3 demethylation activity result in test [2] is on record as “no”. Besides, the H3K4me2 demethylation activity entry in test [3] is listed as “no”.

B6: L447A: JMJ703 substitution mutant, residue conserved in H3K4 demethylases (protein, UniProt Q53WJ1 1-1238, looked up, variant L447A)
Lysine-specific demethylase …: B1 Lysine-specific demethylase … with A394H, L447A
Regarding B6, the H3K4me1 demethylation activity entry in test [1] was “no”. Further, in test [2], the H3K4me3 demethylation activity entry is recorded as “no”. Besides, the H3K4me2 demethylation activity entry in test [3] is listed as “no”.
